This note sets out measurements from patent publication US20050118674A1, “Engineering of Controlled Deamidation Rates in Peptides, Proteins, and Similar Structures” (priority 2003, published 2005).

This data set is described as follows: First-order nonenzymatic deamidation of pentapeptides in Tris buffer. In kind it is physicochemical. The conditions noted are these: 0.15 M Tris HCl; for First-Order Deamidation Halftimes of GlyXxxAsnYyyGly: pH 7.4, 37.0° C., Asn pentapeptides; for First-Order Deamidation Halftimes of GlyXxxGlnYyyGly: pH 7.4, 37.0 ° C., Gln pentapeptides, 52 values measured, rest derived from surface fitting. Here is the method: One of the discoveries made was that the sequence dependence of deamidation is much richer and covers a wider range than previously thought. In 37° C., pH 7.4, 0.15 M Tris buffer, the combination of XxxAsnYyy and XxxGlnYyy sequences where Xxx and Yyy are any of the naturally occuring amino acids covers a range from less than 1 day to over 15,000 days with the entire range in between available.
It is based on pentapeptide rates measure in 37° C., pH 7.4, 0.15 M Tris buffer. The applicability of a pentapeptide model to sequence dependence was verified in a separate set of experiments. All values listed in this table are experimental except for the four values in boxes, which were estimated from the rest of the data.
It is also based on pentapeptide rates measure in 37° C., pH 7.4, 0.15 M Tris buffer. In this case, the 52 values shown in bold were measured, and the rest of the values were derived from surface fitting.
Deamidation rates are affected by a wide variety of parameters, including, pH, Temperature, Ionic Strength, and Buffer Ions. These rates are measured under pH and Temperature conditions that are applicable to biological systems. The buffer type and concentration were chosen to minimize ion affects to the extent possible given the experimental limitations. Modification of these conditions will change the rates in Tables 1 and 2. As long as the conditions are not taken to extremes (i.e. high temperature, or strongly acidic or basic conditions) the qualitative sequence dependence should remain the same and the rates reported here can be used with necessary adjustments.

“GlyArgAsnCysGly (GRNCG; printed: GlyArgAsnCysGly)”: the “First-Order Deamidation Halftimes of GlyXxxAsnYyyGly” value turned out to be 50.5 days. Same read-out and setting: the value for “GlyArgAsnGluGly (GRNEG; printed: GlyArgAsnGluGly)” was 68.3 days; that for “GlyArgAsnGlyGly (GRNGG; printed: GlyArgAsnGlyGly)” was 1.00 days; that for “GlyArgAsnHisGly (GRNHG; printed: GlyArgAsnHisGly)” was 10.0 days.

In the case of “GlyArgAsnIleGly (GRNIG; printed: GlyArgAsnIleGly)”, the “First-Order Deamidation Halftimes of GlyXxxAsnYyyGly” value is listed as 311 days. Still for that read-out and setting: the value for “GlyArgAsnLeuGly (GRNLG; printed: GlyArgAsnLeuGly)” was 128 days. Still for that read-out and setting: next, “GlyArgAsnLysGly (GRNKG; printed: GlyArgAsnLysGly)”: 49.6 days. On the same count and under the same terms, next, “GlyArgAsnMetGly (GRNMG; printed: GlyArgAsnMetGly)”: 74.4 days; “GlyArgAsnPheGly (GRNFG; printed: GlyArgAsnPheGly)”: 68.3 days; “GlyArgAsnProGly (GRNPG; printed: GlyArgAsnProGly)”: 5790 days. With “GlyArgAsnSerGly (GRNSG; printed: GlyArgAsnSerGly)”, the “First-Order Deamidation Halftimes of GlyXxxAsnYyyGly” value was determined as 14.3 days.

On to “GlyArgAsnThrGly (GRNTG; printed: GlyArgAsnThrGly)”, for which the “First-Order Deamidation Halftimes of GlyXxxAsnYyyGly” value is 50.7 days. Consider “GlyArgAsnTrpGly (GRNWG; printed: GlyArgAsnTrpGly)”, for which the “First-Order Deamidation Halftimes of GlyXxxAsnYyyGly” value was determined as 127 days. Still for that read-out and setting: next, “GlyArgAsnTyrGly (GRNYG; printed: GlyArgAsnTyrGly)”: 90.0 days; “GlyArgAsnValGly (GRNVG; printed: GlyArgAsnValGly)”: 247 days. For the substance “GlyArgGlnAlaGly (GRQAG; printed: GlyArgGlnAlaGly)”, the “First-Order Deamidation Halftimes of GlyXxxGlnYyyGly” value came to 4400 days. The same measure, in the same setting: next, “GlyArgGlnArgGly (GRQRG; printed: GlyArgGlnArgGly)”: 2300 days; “GlyArgGlnAspGly (GRQDG; printed: GlyArgGlnAspGly)”: 5900 days; “GlyArgGlnCysGly (GRQCG; printed: GlyArgGlnCysGly)”: 1000 days. Same read-out and setting: the value for “GlyArgGlnGluGly (GRQEG; printed: GlyArgGlnGluGly)” was 5400 days; that for “GlyArgGlnGlyGly (GRQGG; printed: GlyArgGlnGlyGly)” was 660 days. “GlyArgGlnHisGly (GRQHG; printed: GlyArgGlnHisGly)”: the “First-Order Deamidation Halftimes of GlyXxxGlnYyyGly” value came to 4900 days. Still for that read-out and setting: the value for “GlyArgGlnIleGly (GRQIG; printed: GlyArgGlnIleGly)” was 5500 days. Still for that read-out and setting: next, “GlyArgGlnLeuGly (GRQLG; printed: GlyArgGlnLeuGly)”: 5400 days; “GlyArgGlnLysGly (GRQKG; printed: GlyArgGlnLysGly)”: 4000 days; “GlyArgGlnMetGly (GRQMG; printed: GlyArgGlnMetGly)”: 4100 days. The same measure, in the same setting: next, “GlyArgGlnPheGly (GRQFG; printed: GlyArgGlnPheGly)”: 7100 days; “GlyArgGlnProGly (GRQPG; printed: GlyArgGlnProGly)”: 8100 days; “GlyArgGlnSerGly (GRQSG; printed: GlyArgGlnSerGly)”: 4300 days.

Consider “GlyArgGlnThrGly (GRQTG; printed: GlyArgGlnThrGly)”, for which the “First-Order Deamidation Halftimes of GlyXxxGlnYyyGly” value is 4200 days. For “GlyArgGlnTrpGly (GRQWG; printed: GlyArgGlnTrpGly)”, the “First-Order Deamidation Halftimes of GlyXxxGlnYyyGly” value was determined as 11000 days. Still for that read-out and setting: the value for “GlyArgGlnTyrGly (GRQYG; printed: GlyArgGlnTyrGly)” was 9200 days; that for “GlyArgGlnValGly (GRQVG; printed: GlyArgGlnValGly)” was 5800 days. For the substance “GlyAspAsnAlaGly (GDNAG; printed: GlyAspAsnAlaGly)”, the “First-Order Deamidation Halftimes of GlyXxxAsnYyyGly” value worked out at 24.0 days. On the same count and under the same terms, the value for GlyAspAsnAmCysGly was 45.8 days; that for “GlyAspAsnArgGly (GDNRG; printed: GlyAspAsnArgGly)” was 87.2 days; that for “GlyAspAsnAspGly (GDNDG; printed: GlyAspAsnAspGly)” was 29.4 days. Same read-out and setting: next, “GlyAspAsnCysGly (GDNCG; printed: GlyAspAsnCysGly)”: 54.1 days; “GlyAspAsnGluGly (GDNEG; printed: GlyAspAsnGluGly)”: 46.8 days; “GlyAspAsnGlyGly (GDNGG; printed: GlyAspAsnGlyGly)”: 1.53 days.

Regarding “GlyAspAsnHisGly (GDNHG; printed: GlyAspAsnHisGly)”, the “First-Order Deamidation Halftimes of GlyXxxAsnYyyGly” value was 9.7 days. Still for that read-out and setting: the value for “GlyAspAsnIleGly (GDNIG; printed: GlyAspAsnIleGly)” was 298 days. Still for that read-out and setting: the value for “GlyAspAsnLeuGly (GDNLG; printed: GlyAspAsnLeuGly)” was 111 days; that for “GlyAspAsnLysGly (GDNKG; printed: GlyAspAsnLysGly)” was 75.9 days. The same measure, in the same setting: next, “GlyAspAsnMetGly (GDNMG; printed: GlyAspAsnMetGly)”: 57.3 days; “GlyAspAsnPheGly (GDNFG; printed: GlyAspAsnPheGly)”: 70.1 days; “GlyAspAsnProGly (GDNPG; printed: GlyAspAsnProGly)”: 11800 days. Consider “GlyAspAsnSerGly (GDNSG; printed: GlyAspAsnSerGly)”, for which the “First-Order Deamidation Halftimes of GlyXxxAsnYyyGly” value turned out to be 17.0 days. The same measure, in the same setting: next, “GlyAspAsnThrGly (GDNTG; printed: GlyAspAsnThrGly)”: 52.4 days; “GlyAspAsnTrpGly (GDNWG; printed: GlyAspAsnTrpGly)”: 80.3 days. Same read-out and setting: next, “GlyAspAsnTyrGly (GDNYG; printed: GlyAspAsnTyrGly)”: 70.4 days; “GlyAspAsnValGly (GDNVG; printed: GlyAspAsnValGly)”: 241 days. For “GlyAspGlnAlaGly (GDQAG; printed: GlyAspGlnAlaGly)”, the “First-Order Deamidation Halftimes of GlyXxxGlnYyyGly” value is recorded as 7100 days.
